From patent US20210087522

Tests used:
[1] = target: T1, MACP, CP of an uncharacterized NRP/PK gene cluster from M. aeruginosa NIES843
T1 chain: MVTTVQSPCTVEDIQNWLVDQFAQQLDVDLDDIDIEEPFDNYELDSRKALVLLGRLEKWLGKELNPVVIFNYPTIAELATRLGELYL

[2] = target: T2, SsPCP, PCP of a thaxtomin cluster from Streptomyces scabiei 87.22
T2 chain: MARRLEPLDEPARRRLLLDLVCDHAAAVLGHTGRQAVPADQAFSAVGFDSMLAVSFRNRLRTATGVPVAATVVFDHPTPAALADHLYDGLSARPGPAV

[3] = target: T3, APNPCP, CP of an uncharacterized NRP/PK gene cluster from Anabaena
T3 chain: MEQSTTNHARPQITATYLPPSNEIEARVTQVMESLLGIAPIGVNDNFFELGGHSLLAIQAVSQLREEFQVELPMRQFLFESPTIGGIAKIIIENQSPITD

[4] = target: ScACP, ACP of a putative concanamycin gene cluster from Streptomyces coelicolor A(3)2
[5] = target: T4, SFACP, ACP of the FAS from Synechocystis
T4 chain: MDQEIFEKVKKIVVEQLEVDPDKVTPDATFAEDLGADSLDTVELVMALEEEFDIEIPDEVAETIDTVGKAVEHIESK

[6] = target: T5, AFACP, ACP of the FAS from Anabaena
T5 chain: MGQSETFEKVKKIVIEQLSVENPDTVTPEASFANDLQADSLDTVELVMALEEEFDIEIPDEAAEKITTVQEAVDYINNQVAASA

[7] = target: T6, FNsACP, homolog of ArCPNp from Fischerella
T6 chain: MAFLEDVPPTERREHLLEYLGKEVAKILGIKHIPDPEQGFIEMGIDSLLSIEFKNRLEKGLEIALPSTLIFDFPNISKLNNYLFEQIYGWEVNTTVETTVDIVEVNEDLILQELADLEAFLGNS

[8] = target: AprACP, ACP of the apratoxin (PK/NRP) gene cluster in Lyngbya sp.
[9] = target: T7, FisPCP, PCP of the shinorine gene cluster from Fischerella
T7 chain: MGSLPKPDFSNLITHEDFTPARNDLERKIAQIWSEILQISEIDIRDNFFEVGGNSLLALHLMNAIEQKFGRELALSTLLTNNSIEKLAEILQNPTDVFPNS

[10] = target: T8, APACP, ACP of the glycolipid PKS in Anabaena
T8 chain: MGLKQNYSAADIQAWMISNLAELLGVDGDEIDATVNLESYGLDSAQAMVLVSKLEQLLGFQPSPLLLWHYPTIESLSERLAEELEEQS

[11] = target: T9, FNPCP, CP of an uncharacterized NRP gene cluster from Fischerella
T9 chain: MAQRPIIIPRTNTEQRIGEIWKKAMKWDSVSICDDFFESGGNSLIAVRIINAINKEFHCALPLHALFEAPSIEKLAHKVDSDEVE

B1: FPPT, Sfp-like phosphopantetheinyl transferase (PPTase) from Fischerella sp. PCC9339 (protein)
chain: MGSETNHLWLTAPTNLTLLPDDVHVWRISLDRPESELQALQTTLSSDEIARAQRFYFEQHRQRFVAGRGILRTILGRYLGVEPQAVEFTYELRGKPLLADRFADSGVSFNLSHSQDLALCGVSRNRKIGIDVEYMRSVSDVEALAERFFAPREYEVVRSLPSNQQQQVFFRYWTCKEAYLKAIGVGIVQLEKVEISLTLEQPAKLITDEEWSLIELVPGDHYLGAVAIAGQNLDLKYWQY
For B1, the “phosphopantetheinylation of CP (apo to holo), LC-MS; no activity” value (“phosphopantetheinylation of CP … no activity” for short) [1] was “FPPT shared the same substrate scope as SePPT with the exception of its low activity toward SsPCP”, the “relative activity (most active PPTase = 100%)” value [1] was “FPPT was not competent to activate SsPCP, APACP, APNPCP, MACP, and ScACP” and the “phosphopantetheinylation of CP (apo to holo), LC-MS; low activity” value [2] was “FPPT shared the same substrate scope as SePPT with the exception of its low activity toward SsPCP”. For the same protein, the “relative activity (most active PPTase = 100%)” value [2] was “FPPT was not competent to activate SsPCP, APACP, APNPCP, MACP, and ScACP”, the “phosphopantetheinylation of CP … no activity” value [3] was “FPPT shared the same substrate scope as SePPT with the exception of its low activity toward SsPCP” and the “phosphopantetheinylation of CP … no activity” value [4] was “FPPT shared the same substrate scope as SePPT with the exception of its low activity toward SsPCP”.

B2: SePPT, Sfp-like phosphopantetheinyl transferase (PPTase) from Synechococcus elongatus PCC7942 (protein)
chain: MQRPNPSDAVPVPSIPSCDRGPIPNPVTWRTSPEPLFLSAQTVHLWRCSLTRSLSSAEQAIVAADCDRAQAYGSNRRHQFLCGRWWLRQLLSLYLPEEPADFRFQLSPTGKPELPQSNLCFNLSHSGSTLLIAIAWQPVGVDVEQPRSRSWLALARRYFPSAELAAMQQSTDCDRWGLASWVCKEAWIKAQGRTLANSLRHLQCAWTANGQPRLSGLGSEESQVQLLQVDPQEQLWAAIAMPAGWNYQTWTAAIIRKNH
In the case of B2, the “relative activity (most active PPTase = 100%)” value [5] is reported as “SePPT demonstrated strong activity toward two ACPs of FASs but no others”, the “phosphopantetheinylation of CP … no activity” value [1] is reported as “SePPT showed no activity toward APNPCP, MACP, ScACP, and SsPCP” and the “phosphopantetheinylation of CP … no activity” value [2] is reported as “SePPT showed no activity toward APNPCP, MACP, ScACP, and SsPCP”. The “relative activity (most active PPTase = 100%)” value [6] was “SePPT demonstrated strong activity toward two ACPs of FASs but no others”, the “phosphopantetheinylation of CP … no activity” value [3] was “SePPT showed no activity toward APNPCP, MACP, ScACP, and SsPCP” and the “phosphopantetheinylation of CP … no activity” value [4] was “SePPT showed no activity toward APNPCP, MACP, ScACP, and SsPCP”.

B3: Sfp, phosphopantetheinyl transferase from Bacillus subtilis (protein)
chain: MKIYGIYMDRPLSQEENERFMTFISPEKREKCRRFYHKEDAHRTLLGDVLVRSVISRQYQLDKSDIRFSTQEYGKPCIPDLPDAHFNISHSGRWVIGAFDSQPIGIDIEKTKPISLEIAKRFFSKTEYSDLLAKDKDEQTDYFYHLWSMKESFIKQEGKGLSLPLDSFSVRLHQDGQVSIELPDSHSPCYIKTYEVDPGYKMAVCAAHPDFPEDITMVSYEELL
Work on B3 yielded a Km [5] of 2.5 µM, a kcat [5] of 0.0367 s⁻¹ and a kcat/Km [5] of 15000 M⁻¹ s⁻¹. For the same protein, the “phosphopantetheinylation of CP (apo to holo), LC-MS” value [5] was “APPT, AvPPT, MPPT and Sfp functionalized all substrates”, the Km [7] was 10.9 µM and the kcat [7] was 0.04 s⁻¹. For the same protein, the kcat/Km [7] was 3330 M⁻¹ s⁻¹, the “phosphopantetheinylation of CP (apo to holo), LC-MS” value [7] was “APPT, AvPPT, MPPT and Sfp functionalized all substrates” and the Km [8] was 9 µM. For the same protein, the kcat [8] was 0.0483 s⁻¹, the kcat/Km [8] was 5000 M⁻¹ s⁻¹ and the “phosphopantetheinylation of CP (apo to holo), LC-MS” value [8] was “APPT, AvPPT, MPPT and Sfp functionalized all substrates”. It also gave a Km [9] of 14 µM, a kcat [9] of 0.0283 s⁻¹ and a kcat/Km [9] of 1670 M⁻¹ s⁻¹. For the same protein, the “phosphopantetheinylation of CP (apo to holo), LC-MS” value [9] was “APPT, AvPPT, MPPT and Sfp functionalized all substrates”, the Km [1] was 6.7 µM and the kcat [1] was 0.085 s⁻¹. The kcat/Km [1] was 13300 M⁻¹ s⁻¹, the “phosphopantetheinylation of CP (apo to holo), LC-MS” value [1] was “APPT, AvPPT, MPPT and Sfp functionalized all substrates” and the Km [2] was 7.9 µM. The kcat [2] was 0.278 s⁻¹, the kcat/Km [2] was 35000 M⁻¹ s⁻¹ and the “phosphopantetheinylation of CP (apo to holo), LC-MS” value [2] was “APPT, AvPPT, MPPT and Sfp functionalized all substrates”. For the same protein, the “relative activity (most active PPTase = 100%)” value [2] was “Among all PPTases, Sfp showed the highest relative activity toward ScACP and SsPCP”, the Km [10] was 15.3 µM and the kcat [10] was 0.368 s⁻¹. For the same protein, the kcat/Km [10] was 25000 M⁻¹ s⁻¹, the “phosphopantetheinylation of CP (apo to holo), LC-MS” value [10] was “APPT, AvPPT, MPPT and Sfp functionalized all substrates” and the Km [11] was 11.7 µM. For the same protein, the kcat [11] was 0.242 s⁻¹, the kcat/Km [11] was 20000 M⁻¹ s⁻¹ and the “phosphopantetheinylation of CP (apo to holo), LC-MS” value [11] was “APPT, AvPPT, MPPT and Sfp functionalized all substrates”. For the same protein, the Km [6] was 11.6 µM, the kcat [6] was 0.163 s⁻¹ and the kcat/Km [6] was 13300 M⁻¹ s⁻¹. The “phosphopantetheinylation of CP (apo to holo), LC-MS” value [6] was “APPT, AvPPT, MPPT and Sfp functionalized all substrates”, the Km [3] was 12 µM and the kcat [3] was 0.0367 s⁻¹. The kcat/Km [3] was 3330 M⁻¹ s⁻¹, the “phosphopantetheinylation of CP (apo to holo), LC-MS” value [3] was “APPT, AvPPT, MPPT and Sfp functionalized all substrates” and the Km [4] was 8.3 µM. For the same protein, the kcat [4] was 0.253 s⁻¹, the kcat/Km [4] was 30000 M⁻¹ s⁻¹ and the “phosphopantetheinylation of CP (apo to holo), LC-MS” value [4] was “APPT, AvPPT, MPPT and Sfp functionalized all substrates”. For the same protein, the “relative activity (most active PPTase = 100%)” value [4] was “Among all PPTases, Sfp showed the highest relative activity toward ScACP and SsPCP”.
